Assay [1] deals with delta opioid receptor (DOR) (Rattus norvegicus, UniProt P33533). The assay can be described thus: Intracellular cAMP assay. The class given is cell-based. To be noted: FRSK cells; 10 μM forskolin, 1–1000 nM peptide, 30 min; cAMP-Glo.
In the next assay the test system is MOR. To be noted: literature statement; cited from earlier work.

delta opioid receptor (DOR), sequence (P33533 whole entry): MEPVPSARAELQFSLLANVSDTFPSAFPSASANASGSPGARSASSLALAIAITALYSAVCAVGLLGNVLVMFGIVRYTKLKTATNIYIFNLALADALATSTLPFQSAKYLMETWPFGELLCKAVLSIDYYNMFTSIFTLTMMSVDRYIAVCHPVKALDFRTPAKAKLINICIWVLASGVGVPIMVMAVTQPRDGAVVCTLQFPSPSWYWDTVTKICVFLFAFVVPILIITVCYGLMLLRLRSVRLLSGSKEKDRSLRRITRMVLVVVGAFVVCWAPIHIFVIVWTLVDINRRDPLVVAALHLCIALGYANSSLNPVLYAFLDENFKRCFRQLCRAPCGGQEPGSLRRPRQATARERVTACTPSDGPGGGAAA

As for β-endorphin, in assay [1], the “effect on forskolin-induced intracellular cAMP” value is “attenuated this forskolin-induced increase in cAMP concentration in a dose-dependent manner”. The “receptor preference (MOR)” value with MOR is recorded as “primary ligand for MOR”.

The values are drawn from publication PMC12800249 (Scientific Reports, 2025).
